Results from US20140199327A1, “METHODS OF PROMOTING DIFFERENTIATION” (Genentech, Inc., priority 2011, published 2014).

Columns and labels:
Assay in all cases: Flag immunoprecipitation of DUBs from 293T cells cotransfected with ID2, MG-132 treated (FIG. 2B)
[1] = target: T1, SENP5-Flag (human SENP5 with C-terminal Flag epitope) (human, UniProt Q96HI0 1-755, limits assumed)
T1 sequence (looked up): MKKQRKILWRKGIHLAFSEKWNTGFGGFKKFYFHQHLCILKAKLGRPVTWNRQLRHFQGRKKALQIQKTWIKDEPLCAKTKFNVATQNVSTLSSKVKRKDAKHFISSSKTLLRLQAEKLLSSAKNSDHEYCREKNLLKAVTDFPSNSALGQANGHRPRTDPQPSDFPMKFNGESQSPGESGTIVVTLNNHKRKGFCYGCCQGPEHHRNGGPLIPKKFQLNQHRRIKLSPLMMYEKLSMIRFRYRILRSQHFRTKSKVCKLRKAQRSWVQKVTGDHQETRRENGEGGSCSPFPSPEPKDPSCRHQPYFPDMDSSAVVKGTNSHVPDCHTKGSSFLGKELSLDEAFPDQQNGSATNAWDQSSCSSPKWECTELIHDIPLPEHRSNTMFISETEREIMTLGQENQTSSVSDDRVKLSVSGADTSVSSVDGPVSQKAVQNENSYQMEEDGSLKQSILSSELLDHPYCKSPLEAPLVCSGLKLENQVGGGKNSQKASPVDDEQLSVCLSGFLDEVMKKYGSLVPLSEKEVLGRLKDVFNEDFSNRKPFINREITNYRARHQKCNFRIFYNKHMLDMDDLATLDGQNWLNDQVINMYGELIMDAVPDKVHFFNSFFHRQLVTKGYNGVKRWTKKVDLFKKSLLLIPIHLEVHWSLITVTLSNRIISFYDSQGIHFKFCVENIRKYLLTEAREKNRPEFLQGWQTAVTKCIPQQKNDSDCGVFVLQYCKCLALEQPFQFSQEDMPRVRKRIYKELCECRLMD
Procedure: (§1) FIG. 2. […] (A) Western blot (WB) analysis of 293T transfected with Flag-tagged deubiquitinases (DUBs) or an empty vector (−). Where indicated, cells were treated with […] MG-132 for 4 hr. (B) Flag-tagged DUBs were immunoprecipitated (IP) from 293T cells cotransfected with ID2 and treated with […] MG-132 for 6 hr.

[2] = target: T2, USP45-Flag (human USP45 with C-terminal Flag epitope) (human, UniProt Q70EL2 1-814, limits assumed)
T2 sequence (looked up): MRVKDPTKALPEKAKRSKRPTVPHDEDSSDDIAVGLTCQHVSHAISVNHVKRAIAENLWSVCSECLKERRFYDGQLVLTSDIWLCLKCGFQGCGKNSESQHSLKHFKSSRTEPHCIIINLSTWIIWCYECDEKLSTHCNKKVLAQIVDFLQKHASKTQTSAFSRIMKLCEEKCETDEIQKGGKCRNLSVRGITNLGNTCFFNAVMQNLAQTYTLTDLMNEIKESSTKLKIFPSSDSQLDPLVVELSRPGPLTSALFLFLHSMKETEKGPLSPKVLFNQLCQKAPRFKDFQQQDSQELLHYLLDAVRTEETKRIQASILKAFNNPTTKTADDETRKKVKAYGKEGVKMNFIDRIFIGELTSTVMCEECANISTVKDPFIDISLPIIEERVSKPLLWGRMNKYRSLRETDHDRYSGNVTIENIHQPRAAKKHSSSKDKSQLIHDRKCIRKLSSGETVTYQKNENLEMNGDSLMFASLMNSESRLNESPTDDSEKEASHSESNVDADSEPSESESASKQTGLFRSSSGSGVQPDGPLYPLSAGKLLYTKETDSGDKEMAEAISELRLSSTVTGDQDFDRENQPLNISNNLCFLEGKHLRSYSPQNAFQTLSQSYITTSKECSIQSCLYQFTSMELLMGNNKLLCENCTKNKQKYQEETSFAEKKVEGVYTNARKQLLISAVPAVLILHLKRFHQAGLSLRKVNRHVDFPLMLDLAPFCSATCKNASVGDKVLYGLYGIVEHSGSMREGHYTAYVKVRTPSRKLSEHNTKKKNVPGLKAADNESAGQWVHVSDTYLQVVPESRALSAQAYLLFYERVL
Procedure: as §1

[3] = target: T3, USP36-Flag (human USP36 with C-terminal Flag epitope) (human, UniProt Q9P275 1-1123, limits assumed)
T3 sequence (looked up): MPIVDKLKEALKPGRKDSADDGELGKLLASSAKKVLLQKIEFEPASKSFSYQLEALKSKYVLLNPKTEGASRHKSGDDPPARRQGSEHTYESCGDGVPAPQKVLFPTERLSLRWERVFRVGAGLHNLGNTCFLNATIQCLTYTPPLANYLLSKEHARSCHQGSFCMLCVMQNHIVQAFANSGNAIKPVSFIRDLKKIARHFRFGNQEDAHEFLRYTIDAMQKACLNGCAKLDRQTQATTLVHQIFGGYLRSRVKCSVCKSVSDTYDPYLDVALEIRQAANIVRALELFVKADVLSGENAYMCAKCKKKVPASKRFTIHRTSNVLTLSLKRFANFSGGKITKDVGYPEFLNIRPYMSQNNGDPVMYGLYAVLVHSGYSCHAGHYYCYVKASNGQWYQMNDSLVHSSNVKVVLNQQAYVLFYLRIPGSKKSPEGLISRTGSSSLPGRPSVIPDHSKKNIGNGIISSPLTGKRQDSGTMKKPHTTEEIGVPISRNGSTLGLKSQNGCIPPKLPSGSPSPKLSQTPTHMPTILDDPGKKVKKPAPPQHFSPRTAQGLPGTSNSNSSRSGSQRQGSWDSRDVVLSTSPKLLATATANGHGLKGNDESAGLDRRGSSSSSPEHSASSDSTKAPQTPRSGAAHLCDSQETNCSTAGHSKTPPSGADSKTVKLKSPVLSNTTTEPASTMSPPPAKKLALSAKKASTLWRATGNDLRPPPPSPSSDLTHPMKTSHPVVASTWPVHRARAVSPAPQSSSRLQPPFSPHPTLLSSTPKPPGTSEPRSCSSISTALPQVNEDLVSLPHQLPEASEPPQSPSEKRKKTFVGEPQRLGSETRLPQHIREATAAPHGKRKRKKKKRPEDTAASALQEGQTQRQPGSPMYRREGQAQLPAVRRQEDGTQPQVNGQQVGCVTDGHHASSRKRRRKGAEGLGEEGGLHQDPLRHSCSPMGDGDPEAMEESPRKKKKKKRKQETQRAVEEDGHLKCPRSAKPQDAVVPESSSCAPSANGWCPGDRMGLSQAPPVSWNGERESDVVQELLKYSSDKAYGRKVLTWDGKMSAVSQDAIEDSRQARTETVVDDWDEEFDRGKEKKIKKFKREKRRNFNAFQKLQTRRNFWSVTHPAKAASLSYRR
Procedure: as §1

binding result [1]: no binding
binding result [2]: no binding
binding result [3]: no binding
B1: ID2 (co-transfected / co-expressed in 293T cells) (other)
chain: MKAFSPVRSVRKNSLSDHSLGISRSKTPVDDPMSLLYNMNDCYSKLKELVPSIPQNKKVSKMEILQHVIDYILDLQIALDSHPTIVSLHHQRPGQNQASRTPLTTLNTDISILSLQASEFPSELMSNDSKALCG
notes: ID2 was amplified from Jurkat-derived cDNA; The methods describe only a C-terminal Flag version in pRK2001
